The record followed here is patent US20240018252A1 (Pfizer, published 2024).

In one assay the target is T1, human BCMA (human, UniProt Q02223 1-54).
T1 construct: also called huBCMA; hBCMA
T1 sequence: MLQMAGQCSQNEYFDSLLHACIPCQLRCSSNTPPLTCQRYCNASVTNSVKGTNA
The experiment in a line: SPR, immobilised IgG, 25° C. For orientation: SPR reads the build-up and loss of mass on a sensor chip optically.

The target in another assay is T2, cyBCMA (cynomolgus, UniProt A0A2K5UD97 1-53).
T2 construct: Soluble analyte in SPR; construct not described; also called cyno BCMA
T2 sequence (A0A2K5UD97 entry or part of it): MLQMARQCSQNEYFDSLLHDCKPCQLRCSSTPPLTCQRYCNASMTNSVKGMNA
The experiment in a line: SPR, immobilised IgG, 25° C.

B1: L1.GDF/L3.KW/H3.AL (antibody, V domains shown)
VH: EVQLLESGGGLVQPGGSLRLSCAASGFTFGSYAMTWVRQAPGKGLEWVSAISGSGGNTFYADSVKGRFTISRDNSKNTLYLQMNSLRAEDTAVYYCARVSPIAALMDYWGQGTLVTVSS
VL: EIVLTQSPGTLSLSPGERATLSCRASQSVGDFYLAWYQQKPGQAPRLLIYGASSRATGIPDRFSGSGSGTDFTLTISRLEPEDFAVYYCKHYGWPPSFTFGQGTKVEIK
notes: IgG in the assay
As for B1, the “T½” value in the assay with human BCMA was 2.96 min; in the assay with cyBCMA it was 0.6 min.

B2: L1.LGF/L3.KW/H3.AL (antibody, V domains shown)
VH: EVQLLESGGGLVQPGGSLRLSCAASGFTFGSYAMTWVRQAPGKGLEWVSAISGSGGNTFYADSVKGRFTISRDNSKNTLYLQMNSLRAEDTAVYYCARVSPIAALMDYWGQGTLVTVSS
VL: EIVLTQSPGTLSLSPGERATLSCRASQSLGSFYLAWYQQKPGQAPRLLIYGASSRATGIPDRFSGSGSGTDFTLTISRLEPEDFAVYYCKHYGWPPSFTFGQGTKVEIK
notes: IgG in the assay
Regarding B2, the “T½” value is 9.4 min with human BCMA and 1 min in the assay with cyBCMA.

B3: L1.GDF/L3.NY/P6E01 (antibody, V domains shown)
VH: EVQLLESGGGLVQPGGSLRLSCAASGFTFGSYAMTWVRQAPGKGLEWVSAISGSGGNTFYADSVKGRFTISRDNSKNTLYLQMNSLRAEDTAVYYCARVSPIASGMDYWGQGTLVTVSS
VL: EIVLTQSPGTLSLSPGERATLSCRASQSVGDFYLAWYQQKPGQAPRLLIYGASSRATGIPDRFSGSGSGTDFTLTISRLEPEDFAVYYCQHYNYPPSFTFGQGTKVEIK
notes: IgG in the assay
Consider B3, for which the “T½” value came to 1.95 min with human BCMA and 1.5 min with cyBCMA.

B4: L1.LGF/L3.NY/H3.AL (antibody, V domains shown)
VH: EVQLLESGGGLVQPGGSLRLSCAASGFTFGSYAMTWVRQAPGKGLEWVSAISGSGGNTFYADSVKGRFTISRDNSKNTLYLQMNSLRAEDTAVYYCARVSPIAALMDYWGQGTLVTVSS
VL: EIVLTQSPGTLSLSPGERATLSCRASQSLGSFYLAWYQQKPGQAPRLLIYGASSRATGIPDRFSGSGSGTDFTLTISRLEPEDFAVYYCQHYNYPPSFTFGQGTKVEIK
notes: IgG in the assay
Take B4: the “T½” value with human BCMA came to 11.9 min; with cyBCMA, 0.8 min.

B5: L1.GDF/L3.PY/H3.AQ (antibody, V domains shown)
VH: EVQLLESGGGLVQPGGSLRLSCAASGFTFGSYAMTWVRQAPGKGLEWVSAISGSGGNTFYADSVKGRFTISRDNSKNTLYLQMNSLRAEDTAVYYCARVSPIAAQMDYWGQGTLVTVSS
VL: EIVLTQSPGTLSLSPGERATLSCRASQSVGDFYLAWYQQKPGQAPRLLIYGASSRATGIPDRFSGSGSGTDFTLTISRLEPEDFAVYYCQHYPYPPSFTFGQGTKVEIK
notes: IgG in the assay
As to B5, the “T½” value worked out at 0.86 min with human BCMA and 0.7 min with cyBCMA.

B6: L1.LGF/L3.KW/H3.AP (antibody, V domains shown)
VH: EVQLLESGGGLVQPGGSLRLSCAASGFTFGSYAMTWVRQAPGKGLEWVSAISGSGGNTFYADSVKGRFTISRDNSKNTLYLQMNSLRAEDTAVYYCARVSPIAAPMDYWGQGTLVTVSS
VL: EIVLTQSPGTLSLSPGERATLSCRASQSLGSFYLAWYQQKPGQAPRLLIYGASSRATGIPDRFSGSGSGTDFTLTISRLEPEDFAVYYCKHYGWPPSFTFGQGTKVEIK
notes: IgG in the assay
Consider B6, for which the “T½” value in the assay with human BCMA was 5.1 min; in the assay with cyBCMA, 0.7 min.

B7: L1.LGF/L3.KW/H3.AQ (antibody, V domains shown)
VH: EVQLLESGGGLVQPGGSLRLSCAASGFTFGSYAMTWVRQAPGKGLEWVSAISGSGGNTFYADSVKGRFTISRDNSKNTLYLQMNSLRAEDTAVYYCARVSPIAAQMDYWGQGTLVTVSS
VL: EIVLTQSPGTLSLSPGERATLSCRASQSLGSFYLAWYQQKPGQAPRLLIYGASSRATGIPDRFSGSGSGTDFTLTISRLEPEDFAVYYCKHYGWPPSFTFGQGTKVEIK
notes: IgG in the assay
For B7, the results for the “T½” value with human BCMA and with cyBCMA were 12.1 min and 3.3 min, respectively.

B8: L1.GDF/L3.KW/H3.AP (antibody, V domains shown)
VH: EVQLLESGGGLVQPGGSLRLSCAASGFTFGSYAMTWVRQAPGKGLEWVSAISGSGGNTFYADSVKGRFTISRDNSKNTLYLQMNSLRAEDTAVYYCARVSPIAAPMDYWGQGTLVTVSS
VL: EIVLTQSPGTLSLSPGERATLSCRASQSVGDFYLAWYQQKPGQAPRLLIYGASSRATGIPDRFSGSGSGTDFTLTISRLEPEDFAVYYCKHYGWPPSFTFGQGTKVEIK
notes: IgG in the assay
Consider B8, for which the “T½” value in the assay with human BCMA was 2.51 min; with cyBCMA, 0.6 min.

B9: L1.LGF/L3.NY/H3.AP (antibody, V domains shown)
VH: EVQLLESGGGLVQPGGSLRLSCAASGFTFGSYAMTWVRQAPGKGLEWVSAISGSGGNTFYADSVKGRFTISRDNSKNTLYLQMNSLRAEDTAVYYCARVSPIAAPMDYWGQGTLVTVSS
VL: EIVLTQSPGTLSLSPGERATLSCRASQSLGSFYLAWYQQKPGQAPRLLIYGASSRATGIPDRFSGSGSGTDFTLTISRLEPEDFAVYYCQHYNYPPSFTFGQGTKVEIK
notes: IgG in the assay
With B9, the entries for the “T½” value in the assay with human BCMA and with cyBCMA were 21.7 min and 2.1 min, respectively.

B10: L1.GDF/L3.NY/H3.AQ (antibody, V domains shown)
VH: EVQLLESGGGLVQPGGSLRLSCAASGFTFGSYAMTWVRQAPGKGLEWVSAISGSGGNTFYADSVKGRFTISRDNSKNTLYLQMNSLRAEDTAVYYCARVSPIAAQMDYWGQGTLVTVSS
VL: EIVLTQSPGTLSLSPGERATLSCRASQSVGDFYLAWYQQKPGQAPRLLIYGASSRATGIPDRFSGSGSGTDFTLTISRLEPEDFAVYYCQHYNYPPSFTFGQGTKVEIK
notes: IgG in the assay
Turning to B10, the “T½” value with human BCMA turned out to be 16 min; in the assay with cyBCMA, 8.5 min.

B11: L1.GDF/L3.NY/H3.AL (antibody, V domains shown)
VH: EVQLLESGGGLVQPGGSLRLSCAASGFTFGSYAMTWVRQAPGKGLEWVSAISGSGGNTFYADSVKGRFTISRDNSKNTLYLQMNSLRAEDTAVYYCARVSPIAALMDYWGQGTLVTVSS
VL: EIVLTQSPGTLSLSPGERATLSCRASQSVGDFYLAWYQQKPGQAPRLLIYGASSRATGIPDRFSGSGSGTDFTLTISRLEPEDFAVYYCQHYNYPPSFTFGQGTKVEIK
notes: IgG in the assay
With B11, the “T½” value was 2.87 min in the assay with human BCMA and 0.5 min with cyBCMA.

B12: L1.GDF/L3.NY/H3.AP (antibody, V domains shown)
VH: EVQLLESGGGLVQPGGSLRLSCAASGFTFGSYAMTWVRQAPGKGLEWVSAISGSGGNTFYADSVKGRFTISRDNSKNTLYLQMNSLRAEDTAVYYCARVSPIAAPMDYWGQGTLVTVSS
VL: EIVLTQSPGTLSLSPGERATLSCRASQSVGDFYLAWYQQKPGQAPRLLIYGASSRATGIPDRFSGSGSGTDFTLTISRLEPEDFAVYYCQHYNYPPSFTFGQGTKVEIK
notes: IgG in the assay
For B12, the “T½” value with human BCMA was determined as 8.21 min; with cyBCMA it was 1.6 min.

B13: L1.GDF/L3.KW/H3.AQ (antibody, V domains shown)
VH: EVQLLESGGGLVQPGGSLRLSCAASGFTFGSYAMTWVRQAPGKGLEWVSAISGSGGNTFYADSVKGRFTISRDNSKNTLYLQMNSLRAEDTAVYYCARVSPIAAQMDYWGQGTLVTVSS
VL: EIVLTQSPGTLSLSPGERATLSCRASQSVGDFYLAWYQQKPGQAPRLLIYGASSRATGIPDRFSGSGSGTDFTLTISRLEPEDFAVYYCKHYGWPPSFTFGQGTKVEIK
notes: IgG in the assay
As to B13, the “T½” value with human BCMA was 3.32 min; in the assay with cyBCMA, 2 min.

B14: L1.LGF/L3.KW/P6E01 (antibody, V domains shown)
VH: EVQLLESGGGLVQPGGSLRLSCAASGFTFGSYAMTWVRQAPGKGLEWVSAISGSGGNTFYADSVKGRFTISRDNSKNTLYLQMNSLRAEDTAVYYCARVSPIASGMDYWGQGTLVTVSS
VL: EIVLTQSPGTLSLSPGERATLSCRASQSLGSFYLAWYQQKPGQAPRLLIYGASSRATGIPDRFSGSGSGTDFTLTISRLEPEDFAVYYCKHYGWPPSFTFGQGTKVEIK
notes: IgG in the assay
For B14, the “T½” value with human BCMA is 1.53 min; with cyBCMA, 0.6 min.
